From the supplement of paper PMC9112550, “Optimization of the antimicrobial peptide Bac7 by deep mutational scanning” (BMC Biology, 2022)

Tested on: Escherichia coli TOP10
Experiment: shrunken log2 fold change of peptide-encoding DNA abundance (4.5 h post-induction vs induction); higher = less antimicrobial activity (less host growth inhibition)
Conditions: time post-induction: 4.5 h; library: site-saturation at positions 5, 18, 19, 20
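Further: peptides expressed intracellularly from a pBAD plasmid library in pooled LB shake-flask culture, induced with 0.3% L-arabinose, DNA abundance read by NGS, three biological replicates, DESeq2 with apeglm shrinkage.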

| Sequence | shrunken log2 fold change |
| --- | --- |
| RRIRYRPPRLPRPRPRPGAYPRP | -0.292 |
| RRIRYRPPRLPRPRPRPGESPRP | 0.224 |
| RRIRYRPPRLPRPRPRPGIQPRP | -0.0445 |
| RRIRYRPPRLPRPRPRPGKMPRP | 0.00758 |
| RRIRYRPPRLPRPRPRPGKQPRP | -0.0708 |
| RRIRYRPPRLPRPRPRPGLTPRP | -0.21 |
| RRIRYRPPRLPRPRPRPGMAPRP | -0.262 |
| RRIRYRPPRLPRPRPRPGNRPRP | 0.0823 |
| RRIRYRPPRLPRPRPRPGPMPRP | -0.148 |
| RRIRYRPPRLPRPRPRPGQNPRP | -0.01 |
| RRIRYRPPRLPRPRPRPGTMPRP | -0.139 |
| RRIRYRPPRLPRPRPRPGVEPRP | 0.0346 |
| RRIRYRPPRLPRPRPRPGVSPRP | 0.0695 |
| RRIRYRPPRLPRPRPRPGYDPRP | -0.205 |
| RRIRYRPPRLPRPRPRPGYHPRP | -0.00992 |
| RRIRYRPPRLPRPRPRPHAAPRP | -0.211 |
| RRIRYRPPRLPRPRPRPHADPRP | -0.0359 |
| RRIRYRPPRLPRPRPRPHCAPRP | -0.544 |
| RRIRYRPPRLPRPRPRPHCKPRP | -0.11 |
| RRIRYRPPRLPRPRPRPHCRPRP | -0.372 |
| RRIRYRPPRLPRPRPRPHEKPRP | -0.00489 |
| RRIRYRPPRLPRPRPRPHFEPRP | -0.115 |
| RRIRYRPPRLPRPRPRPHFPPRP | -0.00195 |
| RRIRYRPPRLPRPRPRPHGPPRP | -0.239 |
| RRIRYRPPRLPRPRPRPHIDPRP | -1.95 |

| Sequence | shrunken log2 fold change |
| --- | --- |
| RRIRYRPPRLPRPRPRPHKGPRP | -0.29 |
| RRIRYRPPRLPRPRPRPHKRPRP | -0.163 |
| RRIRYRPPRLPRPRPRPHLCPRP | -0.0639 |
| RRIRYRPPRLPRPRPRPHLGPRP | 0.0406 |
| RRIRYRPPRLPRPRPRPHMMPRP | -1.6 |
| RRIRYRPPRLPRPRPRPHNWPRP | -0.926 |
| RRIRYRPPRLPRPRPRPHPFPRP | -1.3 |
| RRIRYRPPRLPRPRPRPHPKPRP | -0.0588 |
| RRIRYRPPRLPRPRPRPHPLPRP | -0.719 |
| RRIRYRPPRLPRPRPRPHPQPRP | -0.0957 |
| RRIRYRPPRLPRPRPRPHQCPRP | -0.0856 |
| RRIRYRPPRLPRPRPRPHQRPRP | -0.0288 |
| RRIRYRPPRLPRPRPRPHQWPRP | -0.649 |
| RRIRYRPPRLPRPRPRPHREPRP | -0.00804 |
| RRIRYRPPRLPRPRPRPHRHPRP | -0.615 |
| RRIRYRPPRLPRPRPRPHRNPRP | -0.745 |
| RRIRYRPPRLPRPRPRPHRTPRP | -0.527 |
| RRIRYRPPRLPRPRPRPHTEPRP | -0.0196 |
| RRIRYRPPRLPRPRPRPIALPRP | -0.0389 |
| RRIRYRPPRLPRPRPRPICNPRP | -0.332 |
| RRIRYRPPRLPRPRPRPIDYPRP | -0.0298 |
| RRIRYRPPRLPRPRPRPIGKPRP | 0.0104 |
| RRIRYRPPRLPRPRPRPIHAPRP | -1.49 |
| RRIRYRPPRLPRPRPRPIHFPRP | -0.679 |
| RRIRYRPPRLPRPRPRPIKYPRP | -0.0893 |

| Sequence | shrunken log2 fold change |
| --- | --- |
| RRIRYRPPRLPRPRPRPIMEPRP | -0.0134 |
| RRIRYRPPRLPRPRPRPINLPRP | -0.145 |
| RRIRYRPPRLPRPRPRPINTPRP | -0.274 |
| RRIRYRPPRLPRPRPRPIPAPRP | -0.0717 |
| RRIRYRPPRLPRPRPRPIQKPRP | -0.00992 |
| RRIRYRPPRLPRPRPRPIQLPRP | -0.0605 |
| RRIRYRPPRLPRPRPRPIQYPRP | -0.18 |
| RRIRYRPPRLPRPRPRPISKPRP | -0.562 |
| RRIRYRPPRLPRPRPRPISNPRP | -0.191 |
| RRIRYRPPRLPRPRPRPITYPRP | -0.0505 |
| RRIRYRPPRLPRPRPRPIVTPRP | -0.015 |
| RRIRYRPPRLPRPRPRPIWSPRP | -0.0646 |
| RRIRYRPPRLPRPRPRPIWTPRP | 0.066 |
| RRIRYRPPRLPRPRPRPIYRPRP | -0.641 |
| RRIRYRPPRLPRPRPRPKAGPRP | -0.118 |
| RRIRYRPPRLPRPRPRPKCCPRP | 0.013 |
| RRIRYRPPRLPRPRPRPKDKPRP | -0.536 |
| RRIRYRPPRLPRPRPRPKDYPRP | -0.787 |
| RRIRYRPPRLPRPRPRPKEEPRP | -0.0656 |
| RRIRYRPPRLPRPRPRPKGGPRP | 0.0198 |
| RRIRYRPPRLPRPRPRPKGPPRP | -0.0132 |
| RRIRYRPPRLPRPRPRPKGYPRP | -0.0889 |
| RRIRYRPPRLPRPRPRPKHHPRP | -0.986 |
| RRIRYRPPRLPRPRPRPKHWPRP | 0.266 |
| RRIRYRPPRLPRPRPRPKIIPRP | -1.21 |

| Sequence | shrunken log2 fold change |
| --- | --- |
| RRIRYRPPRLPRPRPRPKKFPRP | -0.0477 |
| RRIRYRPPRLPRPRPRPKKVPRP | -0.141 |
| RRIRYRPPRLPRPRPRPKLPPRP | 0.108 |
| RRIRYRPPRLPRPRPRPKPYPRP | -0.698 |
| RRIRYRPPRLPRPRPRPKQRPRP | -0.106 |
| RRIRYRPPRLPRPRPRPKRWPRP | 0.165 |
| RRIRYRPPRLPRPRPRPKSLPRP | -0.204 |
| RRIRYRPPRLPRPRPRPKVWPRP | 0.221 |
| RRIRYRPPRLPRPRPRPKWFPRP | -0.87 |
| RRIRYRPPRLPRPRPRPLACPRP | -0.319 |
| RRIRYRPPRLPRPRPRPLAMPRP | -0.311 |
| RRIRYRPPRLPRPRPRPLAPPRP | 0.107 |
| RRIRYRPPRLPRPRPRPLASPRP | -0.556 |
| RRIRYRPPRLPRPRPRPLCLPRP | -0.341 |
| RRIRYRPPRLPRPRPRPLFNPRP | -1.24 |
| RRIRYRPPRLPRPRPRPLHHPRP | -1.14 |
| RRIRYRPPRLPRPRPRPLHKPRP | 0.0382 |
| RRIRYRPPRLPRPRPRPLIGPRP | -0.478 |
| RRIRYRPPRLPRPRPRPLMQPRP | -0.283 |
| RRIRYRPPRLPRPRPRPLNFPRP | -1.01 |
| RRIRYRPPRLPRPRPRPLNPPRP | 0.0535 |
| RRIRYRPPRLPRPRPRPLPFPRP | -0.78 |
| RRIRYRPPRLPRPRPRPLQAPRP | -0.057 |
| RRIRYRPPRLPRPRPRPLQRPRP | -0.208 |
| RRIRYRPPRLPRPRPRPLRAPRP | 0.669 |

| Sequence | shrunken log2 fold change |
| --- | --- |
| RRIRYRPPRLPRPRPRPLRKPRP | -0.258 |
| RRIRYRPPRLPRPRPRPLSEPRP | -0.215 |
| RRIRYRPPRLPRPRPRPLTAPRP | -0.492 |
| RRIRYRPPRLPRPRPRPLTRPRP | -0.0623 |
| RRIRYRPPRLPRPRPRPLWAPRP | -0.25 |
| RRIRYRPPRLPRPRPRPLWNPRP | -0.471 |
| RRIRYRPPRLPRPRPRPMCNPRP | -1.82 |
| RRIRYRPPRLPRPRPRPMDAPRP | -0.00112 |
| RRIRYRPPRLPRPRPRPMFFPRP | -0.618 |
| RRIRYRPPRLPRPRPRPMGFPRP | -0.179 |
| RRIRYRPPRLPRPRPRPMHSPRP | -1.02 |
| RRIRYRPPRLPRPRPRPMIEPRP | 0.00164 |
| RRIRYRPPRLPRPRPRPMIQPRP | -0.0921 |
| RRIRYRPPRLPRPRPRPMLYPRP | -0.877 |
| RRIRYRPPRLPRPRPRPMNSPRP | -0.0134 |
| RRIRYRPPRLPRPRPRPMNTPRP | -1.25 |
| RRIRYRPPRLPRPRPRPMPDPRP | -0.204 |
| RRIRYRPPRLPRPRPRPMQYPRP | -0.131 |
| RRIRYRPPRLPRPRPRPMVPPRP | -0.909 |
| RRIRYRPPRLPRPRPRPMVRPRP | -0.0135 |
| RRIRYRPPRLPRPRPRPMWKPRP | -0.00663 |
| RRIRYRPPRLPRPRPRPMWRPRP | -0.27 |
| RRIRYRPPRLPRPRPRPMYPPRP | -0.00192 |
| RRIRYRPPRLPRPRPRPNASPRP | -0.088 |
| RRIRYRPPRLPRPRPRPNCKPRP | -0.504 |

| Sequence | shrunken log2 fold change |
| --- | --- |
| RRIRYRPPRLPRPRPRPNDPPRP | -0.549 |
| RRIRYRPPRLPRPRPRPNGFPRP | -0.219 |
| RRIRYRPPRLPRPRPRPNGWPRP | -0.0316 |
| RRIRYRPPRLPRPRPRPNKTPRP | -0.258 |
| RRIRYRPPRLPRPRPRPNMGPRP | -0.00101 |
| RRIRYRPPRLPRPRPRPNNPPRP | -0.359 |
| RRIRYRPPRLPRPRPRPNNWPRP | -0.398 |
| RRIRYRPPRLPRPRPRPNQGPRP | -0.00893 |
| RRIRYRPPRLPRPRPRPNTDPRP | -0.964 |
| RRIRYRPPRLPRPRPRPNTFPRP | -1.24 |
| RRIRYRPPRLPRPRPRPNTIPRP | -1.05 |
| RRIRYRPPRLPRPRPRPNTRPRP | -0.703 |
| RRIRYRPPRLPRPRPRPNTWPRP | -0.204 |
| RRIRYRPPRLPRPRPRPNTYPRP | -0.988 |
| RRIRYRPPRLPRPRPRPNWSPRP | 0.0306 |
| RRIRYRPPRLPRPRPRPNYWPRP | -0.698 |
| RRIRYRPPRLPRPRPRPPELPRP | 0.162 |
| RRIRYRPPRLPRPRPRPPGQPRP | 0.0011 |
| RRIRYRPPRLPRPRPRPPGVPRP | 0.259 |
| RRIRYRPPRLPRPRPRPPIKPRP | -0.518 |
| RRIRYRPPRLPRPRPRPPLAPRP | 0.13 |
| RRIRYRPPRLPRPRPRPPLGPRP | -0.258 |
| RRIRYRPPRLPRPRPRPPLSPRP | -0.283 |
| RRIRYRPPRLPRPRPRPPNIPRP | -0.659 |
| RRIRYRPPRLPRPRPRPPPIPRP | 0.0596 |
